Values quoted from earlier work as cited in patent publication US20220184236A1, “NANOPARTICLE, CONTRAST AGENT FOR MAGNETIC RESONANCE IMAGING COMPRISING SAME AND ZWITTERIONIC LIGAND COMPOUND” (ASTELLAS PHARMA INC., priority 2018, published 2022).

Settings: authentic sample, stated size

B1: ovalbumin (protein, UniProt P01012 2-386, looked up)
Ovalbumin: GSIGAASMEFCFDVFKELKVHHANENIFYCPIAIMSALAMVYLGAKDSTRTQINKVVRFDKLPGFGDSIEAQCGTSVNVHSSLRDILNQITKPNDVYSFSLASRLYAEERYPILPEYLQCVKELYRGGLEPINFQTAADQARELINSWVESQTNGIIRNVLQPSSVDSQTAMVLVNAIVFKGLWEKAFKDEDTQAMPFRVTEQESKPVQMMYQIGLFRVASMASEKMKILELPFASGTMSMLVLLPDEVSGLEQLESIINFEKLTEWTSSNVMEERKIKVYLPRMKMEEKYNLTSVLMAMGITDVFSSSANLSGISSAESLKISQAVHAAHAEINEAGREVVGSAEAGVDAASVSEEFRADHPFLFCIKHIATNAVLFFGRCVSP
notes: authentic sample for SEC, particle size 6.1 nm
Which particle size does the source give for B1 here?
Its particle size is 6.1 nm.
